From article PMC12045048

Biological target: AMBRA1 (activating molecule in beclin-1-regulated autophagy), endogenous in MDA-MB-231 cells (UniProt Q9C0C7)
Test: anti-FLAG co-immunoprecipitation with proteomics (spectral counts)
Settings: parent: 0

UniProt Q9C0C7, sequence (Q9C0C7 whole entry): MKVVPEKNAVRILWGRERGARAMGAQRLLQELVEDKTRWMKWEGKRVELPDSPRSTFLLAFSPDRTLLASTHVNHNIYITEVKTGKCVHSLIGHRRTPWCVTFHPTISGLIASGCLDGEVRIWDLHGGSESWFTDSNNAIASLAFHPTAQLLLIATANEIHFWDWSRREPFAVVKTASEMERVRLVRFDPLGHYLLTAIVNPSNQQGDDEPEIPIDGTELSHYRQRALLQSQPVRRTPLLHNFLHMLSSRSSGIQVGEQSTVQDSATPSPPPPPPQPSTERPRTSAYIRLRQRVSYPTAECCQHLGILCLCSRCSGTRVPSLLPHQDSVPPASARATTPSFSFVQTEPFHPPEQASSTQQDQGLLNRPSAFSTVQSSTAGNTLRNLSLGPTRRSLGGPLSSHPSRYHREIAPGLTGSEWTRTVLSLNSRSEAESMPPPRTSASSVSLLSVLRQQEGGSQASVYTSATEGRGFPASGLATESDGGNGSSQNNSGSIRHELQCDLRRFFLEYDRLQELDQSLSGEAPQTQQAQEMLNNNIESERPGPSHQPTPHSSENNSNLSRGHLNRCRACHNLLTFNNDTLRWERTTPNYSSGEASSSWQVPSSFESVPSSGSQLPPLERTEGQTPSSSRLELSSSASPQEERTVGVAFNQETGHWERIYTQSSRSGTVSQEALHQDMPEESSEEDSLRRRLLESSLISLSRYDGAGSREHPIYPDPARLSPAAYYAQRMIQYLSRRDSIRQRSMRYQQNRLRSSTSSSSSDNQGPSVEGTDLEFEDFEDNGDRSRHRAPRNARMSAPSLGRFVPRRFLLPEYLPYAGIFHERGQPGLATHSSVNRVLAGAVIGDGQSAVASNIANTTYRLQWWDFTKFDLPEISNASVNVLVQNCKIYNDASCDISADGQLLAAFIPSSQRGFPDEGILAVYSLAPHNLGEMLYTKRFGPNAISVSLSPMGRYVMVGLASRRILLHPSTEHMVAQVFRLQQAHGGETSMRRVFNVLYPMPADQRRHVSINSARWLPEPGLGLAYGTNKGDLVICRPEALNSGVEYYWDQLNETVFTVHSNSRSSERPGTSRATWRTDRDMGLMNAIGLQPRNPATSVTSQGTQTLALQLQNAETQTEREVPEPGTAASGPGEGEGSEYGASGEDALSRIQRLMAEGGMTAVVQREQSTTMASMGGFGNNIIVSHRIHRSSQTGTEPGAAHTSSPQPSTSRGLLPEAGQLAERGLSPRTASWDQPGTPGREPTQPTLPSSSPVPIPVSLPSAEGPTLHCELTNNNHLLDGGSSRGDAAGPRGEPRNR

other: Spectral Counts (spectral counts): 7
Substance: FLAG–Rab40c (wild type) in MDA-MB-231 cells (from UniProt Q96S21) 4A (211-LPLP-216 to 211-AAAA-216)
